# Positions of bridges follow the written chain, without caps; N, C: chain ends. Non-standard residues stand in square brackets, D forms with d. No end group written: not given here. *: point of attachment. FITC = O=C1OC2(c3ccc(O)cc3Oc3cc(O)ccc32)c2ccc(NC(=S)*)cc21; R8 = C=CCCCCCC[C@@](C)(N)C(=O)O; S5 = C=CCCC[C@](C)(N)C(=O)O
# T1: recombinant full-length HDMX (UniProt O15151 1-490)
# T1 construct: mature; Full-length protein after TEV cleavage of the tags; also called HDM4
# T1 sequence (looked up): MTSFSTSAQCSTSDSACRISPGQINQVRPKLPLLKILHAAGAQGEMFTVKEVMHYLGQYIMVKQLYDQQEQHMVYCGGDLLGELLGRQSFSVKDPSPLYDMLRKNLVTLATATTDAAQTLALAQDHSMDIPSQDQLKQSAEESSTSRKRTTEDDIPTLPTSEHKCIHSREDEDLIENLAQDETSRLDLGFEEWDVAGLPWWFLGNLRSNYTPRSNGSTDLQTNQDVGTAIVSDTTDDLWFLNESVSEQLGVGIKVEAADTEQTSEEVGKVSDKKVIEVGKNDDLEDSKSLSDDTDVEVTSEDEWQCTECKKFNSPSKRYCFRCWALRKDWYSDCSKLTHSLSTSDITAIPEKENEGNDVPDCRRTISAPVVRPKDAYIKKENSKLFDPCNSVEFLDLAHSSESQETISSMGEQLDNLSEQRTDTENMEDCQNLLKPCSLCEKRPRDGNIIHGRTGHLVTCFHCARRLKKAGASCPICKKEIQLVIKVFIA
# T2: native HDMX (intracellular, in SJSA-X, JEG-3 and MCF-7 cells) (UniProt O15151 1-490)
# T2 construct: mature; Cellular protein in co-immunoprecipitation experiments; In SJSA-X cells it is overexpressed by engineering; also called intracellular HDMX
# T2 sequence (looked up): T1 sequence (looked up)
# B1: FITC-WT-p53 14-29 (peptide)
# peptide: {FITC}-LSQETFSDLWKLLPEN
# notes: Unstapled wild-type peptide, FITC-labeled in the FP assay; also called wild type p53 peptide
# B2: SAH-p53-8F19A (peptide)
# peptide: QSQQTA[R8]NLWRLL[S5]QN
# modifications: staple 7-14; not fully specified (N-terminus, C-terminus); also: N-terminal FITC in binding assays
# notes: also called FITC-SAH-p53-8F19A
# Tests used:
# [1] = target: T1, recombinant full-length HDMX; test: fluorescence polarization, 25 nM FITC-peptide
# Procedure: Fluorescence polarization was then measured at equilibrium on a SpectraMax M5 microplate reader (Molecular Devices).
# [2] = target: T3, native HDM2 (intracellular, in SJSA-X cells) (UniProt Q00987 1-491, limits assumed); test: anti-FITC pull-down from SJSA-X cells, HDM2 western
# T3 construct: mature; Cellular protein in the anti-FITC pull-down; also called intracellular HDM2
# T3 sequence (Q00987 whole entry): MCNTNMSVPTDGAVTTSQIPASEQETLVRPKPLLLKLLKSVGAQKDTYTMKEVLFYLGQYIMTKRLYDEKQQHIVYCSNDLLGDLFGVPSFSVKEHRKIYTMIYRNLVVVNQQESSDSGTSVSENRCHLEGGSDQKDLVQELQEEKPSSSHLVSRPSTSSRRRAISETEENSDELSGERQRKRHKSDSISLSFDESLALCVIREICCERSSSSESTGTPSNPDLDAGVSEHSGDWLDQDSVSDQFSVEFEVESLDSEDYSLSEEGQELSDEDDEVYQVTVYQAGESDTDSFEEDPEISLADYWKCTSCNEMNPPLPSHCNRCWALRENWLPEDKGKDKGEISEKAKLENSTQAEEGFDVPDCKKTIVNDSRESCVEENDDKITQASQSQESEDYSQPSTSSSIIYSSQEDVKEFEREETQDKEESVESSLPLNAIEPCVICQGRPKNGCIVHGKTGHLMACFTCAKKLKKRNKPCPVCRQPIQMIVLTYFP
# [3] = target: T2, native HDMX (intracellular, in SJSA-X, …); test: anti-FITC pull-down from SJSA-X cells, HDMX western
Binder,binding result [1],binding result [2],binding result [3]
B1,no binding (tested: 25 pM-100 nM protein),–,–
B2,no binding (tested: 25 pM-100 nM protein),no binding (tested: 15 uM peptide on cells),no binding (tested: 15 uM peptide on cells)

# — US20140018302A1 (SALK INSTITUTE FOR BIOLOGICAL STUDIES INTELLECTUAL PROPERTY …, published 2014)
